Biological target: L7Ae (Pyrococcus furiosus, UniProt Q8U160 1-123)
Assay: SEC

binding result: binds
B1: Nop5 (L148K, V223E) (natural protein)
chain: MKAFISENVRGIYAFDENGNLIEKRYFTDKPEKVLDQLLKGEITKDLEELLNSLKEKGYDEFVFEHPELSRRAKELGFSATTEFPNIAGERLRSNPEEFLGENWFEEYYKVGVALTRMRIQEQSGARDKMVIQAIEALDDVDKVINLKVARLREWYSLHFPELDELLPKHPQYVAFVKTVGHRDNINEEVLRELGLSEEKIKKILEAKEKTMGAWMDQTDIEEVRQLAEEIDRLYQLRKKLEDYIDRAMDDVAPNLKALVGAKLAARLISLAGGLRELAMMPSSTIQVLGAEKALFRHLRTGAKPPKHGVIYQYPAINRSPWWQRGKIARALAGKLAIAARVDYFSGEYIAEELKKELEARIREIKEKYPKPPKRKREERKGKKPWKKDKKKKKKKEKPRRR

— article PMC4836650 (RNA, 2016)
